Values quoted from earlier work, collected in paper PMC10742151.
Like-named read-outs stand apart in the source and are kept apart here.

How the values were obtained:
[1] = molecular target: CA125 (ovarian cancer biomarker antigen) (UniProt Q8WXI7); conditions: AFM chip (DSP-activated APTES mica) with immobilized aptamer incubated in CA125 solution, then washed with 0.01% Emulgen 913; buffer, salt, pH and temperature …
[2] = molecular target: CA125 (ovarian cancer biomarker antigen) (UniProt Q8WXI7); conditions: AFM chip (DSP-activated APTES mica) with immobilized aptamer incubated in CA125 solution, then washed with 0.01% Emulgen 913; buffer, salt, pH and temperature …; remark: listed apart in the source

Substance	Kd [1] [nM]	Kd [2] [nM]
TAGGGAAGAGAAGGACATATGATGATCAACAACACAAGGGGGGGGGTATCTAGTTGACTAGTACATGACCACTTGA [apta#2 (apta#2.43)]	239	–
TAGGGAAGAGAAGGACATATGATTTTAGGGAAGAGAAGGACTTTTATGCCGCCTTGACTAGTACATGACCACTTGA [apta#1 (apta#2.26)]	166	–
apta#3 (ATW0055, BasePair Biotechnologies)	–	33.8
